The record followed here is paper PMC5571939, “The nature of the Syntaxin4 C-terminus affects Munc18c-supported SNARE assembly” (PLoS ONE, 2017).

Positions count from the first letter of the chain named. In names and notes the source's numbering stands.

T1: HL-Munc18c (mouse, UniProt Q60770 1-592)
T1 construct: Munc18c (Munc18-3), mouse; The linker is said to have 53 amino acids; also called Munc18c with N-terminal His6-tag and long linker; source: E. coli, purified as described previously [39]; not shown: His6 with long linker ([residues removed]), N-terminal, kept
T1 sequence (looked up): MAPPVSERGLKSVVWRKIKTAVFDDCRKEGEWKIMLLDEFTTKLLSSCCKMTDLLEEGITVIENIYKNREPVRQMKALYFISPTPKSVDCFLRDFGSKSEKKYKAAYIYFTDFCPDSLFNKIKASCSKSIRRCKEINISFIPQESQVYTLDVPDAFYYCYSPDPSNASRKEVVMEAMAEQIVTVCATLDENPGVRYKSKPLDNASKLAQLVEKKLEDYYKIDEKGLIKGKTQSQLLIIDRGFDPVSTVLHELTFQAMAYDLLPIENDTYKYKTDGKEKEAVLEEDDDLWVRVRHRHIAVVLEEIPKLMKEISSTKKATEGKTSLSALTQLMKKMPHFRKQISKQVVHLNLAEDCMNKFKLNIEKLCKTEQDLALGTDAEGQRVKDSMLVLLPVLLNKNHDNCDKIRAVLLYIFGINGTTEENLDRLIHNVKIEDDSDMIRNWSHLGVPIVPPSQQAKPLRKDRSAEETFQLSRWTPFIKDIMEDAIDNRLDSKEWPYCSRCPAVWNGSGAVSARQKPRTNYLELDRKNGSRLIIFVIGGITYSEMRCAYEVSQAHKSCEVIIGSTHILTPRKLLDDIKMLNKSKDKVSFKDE

T2: Munc18c:Sx4_(1-298)-TMD (HL-Munc18c with de-tagged full-length Sx4, pre-formed) (mouse, UniProt Q60770 1-592; P70452 1-298)
T2 construct: Munc18c (Munc18-3), mouse; as m12; Syntaxin4 (Sx4) with its C-terminal transmembrane domain, mouse, amino acids 1-298; as m6; also called HL-Munc18c/Sx4 binary complex; source: formed on TALON Co2+ beads from purified E. coli proteins; not shown: His6 with long linker ([residues removed]), N-terminal, kept; His6, N-terminal, cleaved
T2 sequence (looked up) 1: T1 sequence (looked up)
T2 sequence (looked up) 2: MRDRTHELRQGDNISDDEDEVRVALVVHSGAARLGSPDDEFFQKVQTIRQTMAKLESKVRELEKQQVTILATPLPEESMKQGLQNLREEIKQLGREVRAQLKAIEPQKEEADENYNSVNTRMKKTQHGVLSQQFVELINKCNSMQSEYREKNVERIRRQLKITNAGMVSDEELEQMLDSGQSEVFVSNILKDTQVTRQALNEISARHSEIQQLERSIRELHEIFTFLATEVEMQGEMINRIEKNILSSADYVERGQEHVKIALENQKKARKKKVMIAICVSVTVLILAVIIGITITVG

T3: Munc18c:Sx4_(1-275)-His pre-formed complex (rat | mouse, UniProt Q08850 1-275; Q60770 1-592, C141S)
T3 construct: as m1; Munc18c (Munc18-3), mouse; as m10; m1 immobilised by its C-terminal His6 and complexed with m10 before SNAP23 and VAMP2 were added; also called Munc18c/Sx4-His; source: formed on TALON Co2+ beads from purified E. coli proteins; not shown: His6, C-terminal, kept; His6, N-terminal, cleaved
T3 sequence (looked up) 1: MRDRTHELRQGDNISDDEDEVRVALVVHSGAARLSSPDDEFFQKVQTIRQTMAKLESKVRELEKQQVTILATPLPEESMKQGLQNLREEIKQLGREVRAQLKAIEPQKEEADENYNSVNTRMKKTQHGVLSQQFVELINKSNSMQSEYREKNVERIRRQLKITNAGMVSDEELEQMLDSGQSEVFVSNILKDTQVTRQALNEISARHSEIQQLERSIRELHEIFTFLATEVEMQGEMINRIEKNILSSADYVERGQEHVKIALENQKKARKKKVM
T3 sequence (looked up) 2: T1 sequence (looked up)

B1: Sx4_(1-298)-TMD (de-tagged, in detergent micelles) (natural protein, mouse, UniProt P70452 1-298, looked up)
chain: T2 sequence (looked up) 2
notes: Syntaxin4 (Sx4) with its C-terminal transmembrane domain, mouse, amino acids 1-298, synthetic gene (GenScript); Mouse, whereas the soluble Sx4 constructs are rat; also called full-length Sx4; HT-Sx4-TMD after TEV cleavage; source: E. coli Lemo21 (DE3), purified in DDM (TALON Co2+ IMAC, TEV cleavage, reverse IMAC); not shown: His6, N-terminal, cleaved
B2: Munc18c (de-tagged) (natural protein, mouse, UniProt Q60770 1-592, looked up)
chain: T1 sequence (looked up)
notes: Munc18c (Munc18-3), mouse; also called detagged Munc18c; HTMunc18c after TEV cleavage; source: E. coli, purified (IMAC, TEV cleavage, reverse IMAC, SEC); not shown: His6, N-terminal, cleaved
B3: HMunc18c (natural protein, mouse, UniProt Q60770 1-592, looked up)
chain: T1 sequence (looked up)
notes: Munc18c (Munc18-3), mouse; also called Munc18c with an N-terminal His6-tag; source: E. coli, purified as described previously [39]; not shown: His6, N-terminal, kept
B4: SNAP23 (GST-cleaved) (natural protein, mouse, UniProt O09044 1-210, looked up)
chain: MDNLSPEEVQLRAHQVTDESLESTRRILGLAIESQDAGIKTITMLDEQGEQLNRIEEGMDQINKDMREAEKTLTELNKCCGLCICPCNRTKNFESGKNYKATWGDGGDNSPSNVVSKQPSRITNGQPQQTTGAASGGYIKRITNDAREDEMEENLTQVGSILGNLKNMALDMGNEIDAQNQQIQKITEKADTNKNRIDIANTRAKKLIDS
notes: SNAP23, mouse, amino acids 1-210; source: purified (GSH-agarose, thrombin cleavage, MonoQ anion exchange)
B5: Alexa488-labeled Sx4_(1-275)-His (native C141) (domain or fragment, rat, UniProt Q08850 1-275, looked up)
chain: T3 sequence (looked up) 1 with S141C
modifications: Alexa Fluor 488 C5 maleimide on cysteine (native C141 rather than C141S)
notes: Degree of labeling greater than 90%; not shown: His6, C-terminal, kept
B6: Sx4_(1-275)-His (domain or fragment, rat, UniProt Q08850 1-275, looked up)
chain: T3 sequence (looked up) 1
notes: also called Syntaxin4 soluble cytoplasmic domain with C-terminal His6; source: E. coli, purified as described previously [17, 28]; not shown: His6, C-terminal, kept

Conditions in all cases: both partners purified
For one assay, the target named is T1, HL-Munc18c. The experiment in a line: pull-down; HL-Munc18c (20 μg, 1.4 μM) immobilised on TALON Co2+ beads; de-tagged Sx4 proteins (50 μg) added for 4 h (legend: 6 h), washed; binding buffer with 0.1% Triton X-100; SDS-PAGE, Coomassie.
For assay [1], the target named is T4, Sx4_(1-275)-T4L-His (rat | phage T4 (from the name T4 …, UniProt Q08850 1-275; P00720 1-164, C141S).
T4 construct: T4 lysozyme (T4L), amino acids 1-164, synthetic gene (GeneArt); Sx4 ligated between NdeI and HindIII, T4L between HindIII and XhoI of pET20b; also called Sx4 cytoplasmic domain with C-terminal T4-lysozyme fusion and His6; source: E. coli, purified; not shown: His6, C-terminal, kept
In words: BLI; C-terminally His-tagged Sx4 constructs loaded on Ni-NTA biosensors; de-tagged Munc18c 10/25–400 nM in solution; 25 mM Tris-Cl pH 7.5, 150 mM NaCl, 10 mM imidazole, 0.1% TX-100, 10% glycerol, 2 mM βME; BLItz; 1:1 fit. A general note: In BLI a coated tip is dipped into the sample, and binding shifts an interference pattern.

For assay [2], the target named is T4, Sx4_(1-275)-T4L-His. The experiment in a line: ITC; Sx4-T4L-His construct (200–250 μM) titrated into HMunc18c (20–40 μM) in the cell; 298 K; 25 mM HEPES pH 8.0, 200 mM NaCl, 10% glycerol, 2 mM β-ME; single site model.
Assay [3] deals with T5, Alexa488-labeled Sx4_(1-275)-T4L-His (native C141) (rat | phage T4 (from the name T4 …, UniProt Q08850 1-275)); P00720 1-164, Alexa Fluor 488 C5 maleimide on cysteine (native C141 rather than C141S)).
T5 construct: T4 lysozyme (T4L), amino acids 1-164, synthetic gene (GeneArt); Degree of labeling greater than 90%; not shown: His6, C-terminal, kept
The experiment in a line: fluorescence polarisation; fluorescence anisotropy kinetics, both in solution: Alexa488-labeled Sx4 (50 nM) with HMunc18c at 100–2500 nM; 25°C; 25 mM HEPES pH 8.0, 200 mM NaCl, 1 mM TCEP, 2% glycerol; global 1:1 fit (Dynafit 4.0). (Polarisation of emitted light reports the rotation of a fluorescent probe.)

The target in assay [4] is T2, Munc18c:Sx4_(1-298)-TMD (HL-Munc18c …). The experiment in a line: pull-down; beads with pre-formed HL-Munc18c/Sx4 binary complexes incubated with SNAP23 (100 μg, 21.7 μM) and VAMP2 (80 μg, 31.7 μM) together, overnight, 4°C; SDS-PAGE, Coomassie.
The assay “Sx4_(1-275)-His” concerns the target B6. In words: pull-down; Sx4-His proteins immobilised by C-terminal His6 on Co2+ resin, pre-complexed with de-tagged Munc18c or without it (controls); GST-cleaved SNAP23 and VAMP2 (40 μg) added together, overnight, 4°C; SDS-PAGE, Coomassie.
Assay [5] deals with T3, Munc18c:Sx4_(1-275)-His pre-formed …. The assay is described as above.
The assay “HMunc18c” addresses B3. In words: fluorescence polarisation; fluorescence anisotropy kinetics, both in solution: Alexa488-labeled Sx4 (50 nM) with HMunc18c at 100–2500 nM; 25°C; 25 mM HEPES pH 8.0, 200 mM NaCl, 1 mM TCEP, 2% glycerol; global 1:1 fit (Dynafit 4.0).
In the assay “Munc18c (de-tagged)” the target is B2. The experiment in a line: BLI; C-terminally His-tagged Sx4 constructs loaded on Ni-NTA biosensors; de-tagged Munc18c 10/25–400 nM in solution; 25 mM Tris-Cl pH 7.5, 150 mM NaCl, 10 mM imidazole, 0.1% TX-100, 10% glycerol, 2 mM βME; BLItz; 1:1 fit.

In the case of B1, the binding result in the assay with HL-Munc18c was “binds”.
One may read the Kd as the concentration at which binding is half-saturated. The term koff denotes a measure of how fast the partners let go of each other. A high value points to a short-lived complex. A word on the kon: it is a measure of how fast the partners come together. Read a low kon as slow association. In the assay with Sx4_(1-275)-T4L-His [1], B2 registered a Kd of 20 nM, a koff of 0.0078 s⁻¹ and a kon of 430000 M⁻¹ s⁻¹.
In the assay with Sx4_(1-275)-T4L-His [2], B3 showed a Kd of 100 nM. For the same molecule, in assay [3], the Kd was 148 nM, the koff came out at 7.5e-05 s⁻¹ and the kon was 502 M⁻¹ s⁻¹.
Consider B4, for which the binding result (in [4]; with Sx4_(1-275)-His; in assay [5]) was “binds” each time.
In the assay with HMunc18c, B5 had a Kd of 502 nM, a koff of 0.000653 s⁻¹ and a kon of 1300 M⁻¹ s⁻¹.
For B6, in the assay with Munc18c (de-tagged), the Kd was determined as 21 nM, the koff turned out to be 0.0086 s⁻¹ and the kon stood at 530000 M⁻¹ s⁻¹.
